Test results taken from patent US20250295792A1 (ZONHON BIOPHARMA INSTITUTE, published 2025).
Where no end group is shown, it is not given here. [ ]: non-standard residue; d: D form. 2Thi = N[C@@H](Cc1cccs1)C(=O)O

B1: Lys-BKm01-SPA10K (peptide)
peptide: KRPPGXSPFR
modifications: {THI} (β-2-thiophenylalanine) at position 6; N-terminal single modification with M-SPA-10K (straight-chain mPEG succinimidyl propionate, about 10 kDa)
B2: Lys-BKm01-YNHS10K (peptide)
peptide: KRPPGXSPFR
modifications: {THI} (β-2-thiophenylalanine) at position 6; N-terminal single modification with M-YNHS-10K (branched-chain mPEG succinimidyl acetate, about 10 kDa)

Assays:
[1] = target: B2 receptor; assay: cell-based or functional assay
[2] = target: B2 receptor; assay: cell-based or functional assay; remark: listed apart in the source

Sequence of B2 receptor (P30411 whole entry): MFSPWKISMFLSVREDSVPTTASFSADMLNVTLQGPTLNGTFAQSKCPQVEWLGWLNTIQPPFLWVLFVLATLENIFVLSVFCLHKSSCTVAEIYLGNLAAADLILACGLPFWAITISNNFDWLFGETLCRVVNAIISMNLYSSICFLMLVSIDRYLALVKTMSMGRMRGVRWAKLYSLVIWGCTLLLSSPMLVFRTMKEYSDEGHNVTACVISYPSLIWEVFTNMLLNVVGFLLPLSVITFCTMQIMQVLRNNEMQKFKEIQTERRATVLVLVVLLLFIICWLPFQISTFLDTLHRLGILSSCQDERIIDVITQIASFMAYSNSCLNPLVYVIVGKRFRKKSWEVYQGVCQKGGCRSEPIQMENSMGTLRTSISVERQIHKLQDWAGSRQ

Binder | Relative affinity activity (B2-NFAT-CHO-K1 luciferase reporter gene assay, from EC50) [1] [%] | EC50 value (B2 receptor reporter gene assay, FIG. 4a) [2] [mg/L] | fold activity against Lys-BKm01-YNHS10K (B2 receptor reporter gene assay) [2] [fold]
KRPPGXSPFRR ({THI} (β-2-thiophenylalanine) at position 6: KRPPG{THI}SPFRR) [Lys-BKm06] | 90 |  | 
KRPPGFSPFR [Lys-BK (wild-type lysyl bradykinin)] | 100 |  | 
B1 |  | 90.8 | ~4
KRPPGHSPFR [Lys-BKm03] | < 10 |  | 
KRPPG[2Thi]SPFRRPPG[2Thi]SPFR [Lys-BKm12] | 100 |  | 
KRPPGFSPHR [Lys-BKm04] | < 10 |  | 
KRPPGXSPFR ({THI} (β-2-thiophenylalanine) at position 6: KRPPG{THI}SPFR) [Lys-BKm01] | 100 |  | 
KRPPG[2Thi]SPFRKRPPG[2Thi]SPFR [Lys-BKm14] | 100 |  | 
KRPPGXSPXR ({THI} (β-2-thiophenylalanine) at positions 6 and 9: KRPPG{THI}SP{THI}R) [Lys-BKm07] | < 10 |  | 
B2 |  | 347 | 
